Laboratory results reported in patent CN110144011A (SHANGHAI NOVAMAB BIOPHARMACEUTICALS CO LTD, dated 2019).

T1: TIM3(ECD)-Fc抗原 (human, UniProt Q8TDQ0 22-202)
T1 construct: extracellular domain;domain: Fc; Made in HEK293F cells, purified on Protein A; also called 人TIM3(ECD); pFUSE-IgG1-TIM3(ECD); not shown: TEV cleavage site at the C-terminus of TIM3(ECD); IgG1 Fc of the pFUSE-IgG1 vector
T1 sequence (looked up): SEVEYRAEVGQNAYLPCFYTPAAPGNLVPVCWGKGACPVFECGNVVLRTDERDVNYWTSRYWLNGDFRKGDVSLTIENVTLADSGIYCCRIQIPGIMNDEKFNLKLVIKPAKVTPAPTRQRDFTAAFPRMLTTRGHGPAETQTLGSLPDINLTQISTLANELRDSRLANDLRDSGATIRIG


Key:
[1] = target: TIM-3 on HEK 293T TIM-3稳转细胞 (UniProt Q8TDQ0); assay: flow cytometry on HEK 293T TIM-3 stable cells, 6 ug antibody per 5x10^5 cells, goat-anti-human FITC
[2] = target: TIM-3 on HEK 293T TIM-3稳转细胞 (UniProt Q8TDQ0); assay: flow cytometry on HEK293T TIM-3 stable cells, 6 ug nanobody per well, anti-His Alexa Fluor 488
TIM3(ECD)-Fc抗原 = target: T1, TIM3(ECD)-Fc抗原; assay: ELISA of crude periplasmic extract on antigen-coated plate, anti-HA detection; clones positive at OD ratio to control >3

Molecule | 阳性细胞比例 [1] | 结合力 (阳性细胞的比例) [2] | binding result (TIM3(ECD)-Fc抗原)
TIM-3阳性抗体(bench marker，BMK; TSR-022) (antibody) | 98.1% |  | 
Nb18 (VHH) VHH: QVQLQESGGGLVQPGGSLRLSCAASGFTFSVADMSWVRQGPGKGFEWVSSINSDGVSTYYADSVKGRFTISRDNAENTLYLRANSLKTEDTAVYYCAIGHTPCTAGSCRRGQGTQVTVSS |  | > 80% | 
Nb17 (VHH, Camel VHH from the pMECS vector, made in E. coli; detected through HA tag (ELISA) or His tag (flow cytometry); also called 抗体株17) VHH: QVQLQESGGGSVQAGGSLRLSCAASTTLYIASLGWFRQAPGKEREGVAAVDRDGNLDYADSVKGRFTFSRDHAKNTLYLQMNSLKPEDAAMYYCSAALSYVPAGRRLQPDAYNYWGQGTQVTVSS |  |  | binds
Nb22 (VHH, Camel VHH from the pMECS vector, made in E. coli; detected through HA tag (ELISA) or His tag (flow cytometry); also called 抗体株22) VHH: QVQLQESGGGSVRAGGSLRLSCAASGYTYSLYCMGWFRQAPGKEREGVAAISAGGGTTYYSDAVKGRFTISRDNAKKTLYLQMNSLNPEDTAMYYCARSGGYCGLLEYPFTSWGPGTQVTVSS |  | > 80% | binds
Nb28 (VHH, Camel VHH from the pMECS vector, made in E. coli; detected through HA tag (ELISA) or His tag (flow cytometry); also called 抗体株28) VHH: QVQLQESGGGSVQAGGSLRLSCAATKALVISCLAWFRQAPGKEREWVALIGRDGSTSYPDSVKGRFTFSKNTAKNTLELQMNNLKPEDTGAYYCAAATKQDGIPLNPADYDIWGRGTQVTVSS |  |  | binds
Nb20 (VHH) VHH: QVQLQESGGGLVQPGGSLRLSCAASGFTFSVADMTWVRQGLGKGFEWVASVNSDGGSTYYADSVKGRFTISRDNAKNTLYLRLNSLKTEDTAVYYCAIGRTPCTGGFCHRGQGTQVTVSS |  | > 80% | 
Nb26 (VHH, Camel VHH from the pMECS vector, made in E. coli; detected through HA tag (ELISA) or His tag (flow cytometry); also called 抗体株26) VHH: QVQLQESGGGLVQPGGSLRLSCTASGSTFSTALMGWFRQAPGKEREGVAVISAGGGSTWYADSVKGRFTISRDNTKNTVFLQMISLKPEDTAMYYCASSNSLWTRESRYFGYWGQGTQVTVSS |  | > 80% | binds
Nb15 (VHH, Camel VHH from the pMECS vector, made in E. coli; detected through HA tag (ELISA) or His tag (flow cytometry); also called 抗体株15) VHH: QVQLQESGGGSVQAGGSLKLSCTASVWIFSNCAMAWYRQAPGKEREFVSAIGSFRDTNYADSVKGRFTISRDNAKNTGYLQMNSLKPEDSAMYYCKIQCGTQVNWGQGTQVTVSS |  |  | binds
Nb23 (VHH) VHH: QVQLQESGGGSVQTGGSLRLSCTASGFTFSSADMSWVRQAPGKGLEWVSSINSGGGWTDYADSVQGRFTISRDNGKNTLYLQMNSLKTEDTAVYYCTIGNTYCSRGACLRGQGTQVTVSS |  | > 80% | 
Nb24 (VHH) VHH: QVQLQESGGGLVQPGGSLRLSCAASGFTFSVADMSWVRQAPGKGLEWVSSINSGGGRTYYADSMKGRFTISRDNGKNTLYLQMNSLKTEDTAVYYCTIGHTYCSGGACLRGQGTQVTVSS |  | > 80% | 
Nb27 (VHH) VHH: QVQLQESGGGLVQPGGSLRLSCAAAGFTFSSSEMTWVRQAPGKGLEWVARISSTSAFTQYAGSVKGRFTISRDNAKNTLYLQLNSLKTEDTAMYYCAKDVYCGGQYCPPVGPGTQVTVSS |  | > 80% | 
Nb4 (VHH, Camel VHH from the pMECS vector, made in E. coli; detected through HA tag (ELISA) or His tag (flow cytometry); also called 抗体株4) VHH: QVQLQESGGGSVQAGGSLRLSCTASGYTYSRACMGWFRQAPGKQREWVSGIRHDGSTSYADSVKGRFTISRDNAKNTLYLQMNSLKPEDTAMYYCGADIDCRQSRPPYWGQGTQVTVSS |  |  | binds

Now from value to molecule:

阳性细胞比例 [1] | 结合力 (阳性细胞的比例) [2] | binding result (TIM3(ECD)-Fc抗原) | Molecule
 |  | binds | Nb19 (VHH, Camel VHH from the pMECS vector, made in E. coli; detected through HA tag (ELISA) or His tag (flow cytometry); also called 抗体株19) VHH: QVQLQESGGGSVQAGGSLRLSCAASTYTVVRNCFGWFRQAPGKKREGVAVIDRDGSTRYAASVKGRFTISKDNAKNALYLQMSSLEPEDTAVYYCAADWNNDRSCPLWADGFGYWGQGTQVTVSS
 |  | binds | Nb7 (VHH, Camel VHH from the pMECS vector, made in E. coli; detected through HA tag (ELISA) or His tag (flow cytometry); also called 抗体株7) VHH: QVQLQESGGGSVQAGGSLRLSCAASGYTYSRACMGWFRQAPGKQREWVSGIRHDGSITYADSVKGRFTISRDNAKNTLYLQMNSLKPEDTAMYYCGADIDCRGTRPPYWGQGTQVTVSS
 |  | binds | Nb5 (VHH, Camel VHH from the pMECS vector, made in E. coli; detected through HA tag (ELISA) or His tag (flow cytometry); also called 抗体株5) VHH: QVQLQESGGGSVQVGGSLRLSCTASGYTYSRACMGWFRQAPGKQREWVSGIRHDGSTSYADSVKGRSTISRDNAKNTLYLQMNSLKPEDTAMYYCGADIDCRQSRPPYWGQGTQVTVSS
 |  | binds | Nb6 (VHH, Camel VHH from the pMECS vector, made in E. coli; detected through HA tag (ELISA) or His tag (flow cytometry); also called 抗体株6) VHH: QVQLQESGGGSVQVGGSLRLSCTASGYTYSRACMGWFRQAPGKQREWVSGIRHDGSITYADSVKGRFTISRDNAKNTLYLQMNSLKPEDTAMYYCGADIDCRGTRPPYWGQGTQVTVSS
 |  | binds | Nb8 (VHH, Camel VHH from the pMECS vector, made in E. coli; detected through HA tag (ELISA) or His tag (flow cytometry); also called 抗体株8) VHH: QVQLQESGGGSVQAGGSLRLSCTASGYTYSRACMGWFRQAPGKQREWVSGIRHDGSITYADSVKGRFTISRDNAKNTLYLQMNNLKPEDTAMYYCGADIDCRGTRPPYWGQGTQVTVSS
 |  | binds | Nb3 (VHH, Camel VHH from the pMECS vector, made in E. coli; detected through HA tag (ELISA) or His tag (flow cytometry); also called 抗体株3) VHH: QVQLQESGGGSVQVGGSLRLSCTASGYTYSRACMGWFRQAPGKQRDWVSGIRHDGSTSYADSVKGRFTISRDNAKNTLYLQMNSLKPEDTAMYYCGADIDCRQSRPPYWGQGTQVTVSS
 |  | binds | Nb2 (VHH, Camel VHH from the pMECS vector, made in E. coli; detected through HA tag (ELISA) or His tag (flow cytometry); also called 抗体株2) VHH: QVQLQESGGGSVQVGGSLRLSCTASGYTYSRACMGWFRQAPGKQREWVSGIRHDGSTSYADSVKGRFTISRDNTKNTLYLQMNSLKPEDTAMYYCGADIDCRQSRPPYWGQGTQVTVSS
 | > 80% | binds | Nb16 (VHH, Camel VHH from the pMECS vector, made in E. coli; detected through HA tag (ELISA) or His tag (flow cytometry); also called 抗体株16) VHH: QVQLQESGGGSVQAGGSLRLSCTASRSTYCMGWFRQAPGKEREGVAIISSDGRTNYADPVKGRFTISKDNAKNTMFLQMNSLKPEDTAMYYCATRPGNSCGTGIDMPYWGKGTQVTVSS
 | > 80% | binds | Nb25 (VHH, Camel VHH from the pMECS vector, made in E. coli; detected through HA tag (ELISA) or His tag (flow cytometry); also called 抗体株25) VHH: QVQLQESGGGSVQAGGSLRLSCAASVDIYRTYCMGWFRQAPGKQREGVAAISTDGRIRYANSVEGRFTISKDNANNTLYLQMNSLKPEDTAMYFCAADSARCGLWLGGGYPNYWGRGTQVTVSS
 | > 80% | binds | Nb21 (VHH, Camel VHH from the pMECS vector, made in E. coli; detected through HA tag (ELISA) or His tag (flow cytometry); also called 抗体株21) VHH: QVQLQESGGGSVQAGGSLRLYCAASKITYVSSCMGWFRQAPGKEREGVASIDRDGSTTYADSVKGRFTISRDNAKDSLYLQMNSLKPEDTAMYYCAADWGRWCSLEKAVDFVYWGQGTQVTVSS
